The values below come from patent publication US20260265316A1, “IMMUNOTHERAPEUTIC METHODS, COMPOUNDS, AND COMPOSITIONS FOR TREATING OR PREVENTING CELIAC DISEASE” (DBV Technologies, priority 2023, published 2026).

Positions count from the first letter of the chain named.

Holding throughout (assay type): cell-based, human
The subject of assay [1] is circulating gluten-specific CD4+ T cells in whole blood of HLA-DQ8+ CeD patients. Kind of assay: Whole blood IL-2 cytokine release assay, HLA-DQ8+ CeD participants. The note with it: for IL-2 response (in words): HLA-DQ8+ donors, whole blood; for IL-2 response (in words) / mean IL-2 titer: 24 hours; for mean IL-2 titer fold higher than Nex01/02 peptide mix / mean IL-2 titer: HLA-DQ8+ participants, 10 μM. The text has this: FIGS. 11A-11B are graphs depicting the evaluation of the ability of various molarities of three gliadin polypeptides (Cv6, Av6, and 4K), two peptide mixes containing either the four individual building blocks BB1, BB2a, BB3a and BB4a (BB1-4a) or two Nexvax2 peptides (Nex01/02), and six individual building blocks or peptides (BB1, BB2a, BB3a, BB4a, Nex01, and Nex02) to restimulate gluten-specific T cell collected from HLA-DQ8+ CeD patients using a whole blood IL-2 release assay. The whole blood cytokine release assay was performed in four HLA-DQ8+ participants with biopsy-confirmed celiac disease as described in FIG. 10. Data are expressed in femtogram/mL of plasma (A), or as fold change from the negative control (PBS 1×) (B). Symbols represent individual participants (patient ID); bars represent the median+interquartile range of individual values.
The overarching objective of this assay was to validate that the polypeptide constructs (Cv6, Av6, and 4K) can be recognized and processed by human APCs, and they can then promote the activation of gluten-specific effector/memory CD4^+ T cells in CeD patients. A Cytokine Release Assay (CRA) was used (previously described in the literature: Anderson et al., Clinical & Experimental Immunology, 2021 June; 204(3): 321-334; and in Hardy et al., Frontiers in Immunology, 2021, Vol. 12, Article 661662, the entire contents of each of which are incorporated by reference herein). This assay quantifies IL-2 produced by circulating gluten-specific CD4^+ T cells present in the blood of CeD patients upon in vitro stimulation with gluten-derived antigens. Due to the extremely high sensitivity of this CRA, no oral exposure to gluten was required prior to blood sampling.
Informed consent was obtained from all subjects prior to blood collection.
Unfractionated blood (225 μL per well of a 96-well plate) was then rapidly restimulated for 24 hours with each of three of the polypeptide constructs provided herein (SEQ ID NO:23 wherein X is C [Cv6, i.e., SEQ ID NO:49], SEQ ID NO:23 wherein X is A [Av6, i.e., SEQ ID NO:50], and SEQ ID NO:46 [4K]) and with each of four individual building blocks (SEQ ID NO:15 wherein Z is E [BB1], SEQ ID NO:16 wherein Z is E [BB2a], SEQ ID NO:20 wherein Z is E [BB3a], and SEQ ID NO:18 wherein Z is E [BB4a]). The concentrations of the polypeptide constructs ranged from 0.5 to 10 micromolar, and the concentration for each individual building block was 10 micromolar. […] These two peptides comprise an N-terminal pyroglutamate and a C-terminal amide. Nex01 and Nex02 were the two gliadin peptides used in the Nexvax2 immunotherapeutic vaccine that was intended to restore immune tolerance to gluten in HLA-DQ2.5+ CeD patients. A positive control consisted of blood cells stimulated with phytohemagglutinin (PHA) (10 μg/mL) which activates all T cells regardless of their antigen specificity (i.e., a polyclonal activator). Negative controls consisted of cells treated with buffer only (PBS 1×).
After incubation for 24 hours at 37° C. and 5% CO2, plasma was separated from whole blood by centrifugation. Plasma was collected from each well and replicates (n=6 replicates per test) pooled. All plasma samples were frozen at −80° C. until analysis. Single plasma aliquots (100 μL) were thawed and analyzed in duplicate using MSD IL-2 S-plex according to the manufacturer's instructions.

For assay [2], the system named is 0482 1.2 clone (DQ8-glia-α-specific). Kind of assay: IFN-γ ELISpot T cell clone assay. The following applies: 10 μM. The protocol: (§1) FIGS. 12A-12E are graphs depicting the evaluation of the ability of gliadin polypeptides (Cv6, Av6, and 4K) to reactivate gluten-specific T cell clones isolated from CeD patients and specific for a selection of key gliadin epitopes (i.e., DQ2.5-glia-α1a (A), DQ2.5-glia-α2 (B), DQ2.5-glia-ω1 […], DQ2.5-glia-ω2 (D), and DQ8-glia-α1 […]), by IFN-γ ELISpot assay. The three gliadin polypeptide constructs Cv6, Av6, and 4K were incubated overnight at three different molarities ([…]) with irradiated PBMCs, and five T-cell clones originally isolated from HLA-DQ2^+ or HLA-DQ8^+ CeD patients. T cells clones were specific for either DQ2.5-glia-α1a (A), DQ2.5-glia-α2 (B), DQ2.5-glia-ω1 (C), DQ2.5-glia-ω2 (D) or DQ8-glia-α1 (E) epitopes. Spots were detected with IFN-γ-biotinylated antibody and streptavidin-ALP complex and counted using an AID ELISpot reader. Data are expressed as mean Spot Forming Units (SFU) per well of 3 replicate wells+SD.
(§2) For that purpose, five individual CD4^+ T cell clones specific for a selection of key gliadin epitopes have been used. The experimental readout was the enumeration of IFN-γ producing T-cells (Th1 cells) by ELISpot, as previously described: Hardy M Y, et al., J Autoimmun 2015; 56:56-65; Anderson et al., Clinical & Experimental Immunology, 2021, Issue 3, June 2021, Pages 321-334, the entire contents of each of which are incorporated by reference herein.
(§3) For this in vitro assay, irradiated peripheral blood mononuclear cells (PBMCs) isolated from the blood of healthy donors matching for HLA-DQ2.5 or HLA-DQ8 were used as a source of APCs.
(§4) As a positive control for antigen-specific T cell stimulation, the cognate gliadin-derived immunogenic peptide known to activate each CD4^+ T cell clone was used, as described in the literature (Sollid et al., Immunogenetics, 2020 February; 72(1-2):85-88; Tye-Din et al., Sci Transl Med, 2010, Vol. 2, Issue 41, 41-51, the entire contents of each of which are incorporated by reference herein). Negative controls consisted of cells treated with a cocktail of four irrelevant peptides of the following sequence: PFPLPQP (SEQ ID NO:87), PQYQPEQ (SEQ ID NO:88), PFEPQPL (SEQ ID NO:89), and PQSYPEQ (SEQ ID NO:90).

For assay [3], the system named is 3177 2.27 (DQ2.5-glia-ω1 specific) T cell clone. Kind of assay: IFN-γ ELISpot T cell clone assay. The note with it: 10 μM, 3177 2.27 clone. As for the experimental part: as §1, §2, §3, §4
Assay [4] concerns 3072 1.26 (DQ2.5-glia-α1a specific) T cell clone. Kind of assay: IFN-γ ELISpot T cell clone assay. The note with it: 10 μM, 3072 1.26 clone.
The test system of assay [5] is 3007.28 (DQ2.5-glia-α2 specific) T cell clone. Put plainly: IFN-γ ELISpot T cell clone assay. The note with it: 10 μM, 3007.28 clone.
For assay [6], the system named is 0177 2.61 (DQ2.5-glia-ω2 specific) T cell clone. Kind of assay: IFN-γ ELISpot T cell clone assay. The note with it: 10 μM, 0177 2.61 clone.

Consider H-PQPEQPEQPFPEQPQ-NH2 [BB2a], for which the “IL-2 response (in words)” value in assay [1] is listed as “potent IL-2 responses”.
Still for that read-out and setting: for H-PSGEGSFQPSQENPQ-NH2 [BB4a] the value was “potent IL-2 responses”.

B1: QLQPFPQPELPYPQPELPYPQPELPYPQPQPKKKKPQPEQPEQPFPEQPQKKKKPQQPFPQPEQPFPWQPQKKKKPSGEGSFQPSQENPQ (peptide)
chain: QLQPFPQPELPYPQPELPYPQPELPYPQPQPKKKKPQPEQPEQPFPEQPQKKKKPQQPFPQPEQPFPWQPQKKKKPSGEGSFQPSQENPQ
In the case of B1, the “mean spot forming units (IFN-γ ELISpot)” value was 175 in assay [2]; 14 in assay [3]; 177 in assay [4]; 109 in assay [5]; 11 in assay [6]. Further, the “mean IL-2 titer fold higher than Nex01/02 peptide mix” value in assay [1] amounted to 15 fold. Further, the “mean IL-2 titer” value in assay [1] is 6300 fg/mL.

B2: QLQPFPQPELPYPQPELPYPQPELPYPQPQPGPRRKKPQPEQPEQPFPEQPQGARRKKPQQPFPQPEQPFPWQPQGPKKPSGEGSFQPSQENPQ (peptide)
chain: QLQPFPQPELPYPQPELPYPQPELPYPQPQPGPRRKKPQPEQPEQPFPEQPQGARRKKPQQPFPQPEQPFPWQPQGPKKPSGEGSFQPSQENPQ
Turning to B2, the “mean spot forming units (IFN-γ ELISpot)” value in assay [2] worked out at 201; in assay [3], 21; in assay [4], 183; in assay [5] it was 122; in assay [6], 12. For the same molecule, in assay [1], the “mean IL-2 titer fold higher than Nex01/02 peptide mix” value amounted to 9 fold. Also, the “mean IL-2 titer” value in assay [1] is 3695 fg/mL.

B3: QLQPFPQPELPYPQPELPYPQPELPYPQPQPGPRRKKPQPEQPEQPFPEQPQGCRRKKPQQPFPQPEQPFPWQPQGPKKPSGEGSFQPSQENPQ (peptide)
chain: B2 chain with A54C
For the molecule B3, the “mean spot forming units (IFN-γ ELISpot)” value was 173 in assay [2]; 15 in assay [3]; 159 in assay [4]; 117 in assay [5]; 16 in assay [6]. Moreover, the “mean IL-2 titer fold higher than Nex01/02 peptide mix” value in assay [1] is 11 fold. In addition, the “mean IL-2 titer” value in assay [1] came out at 4528 fg/mL.
